The source of these data is PMC10397247.

The target in assay [1] is T1, P6-AA-1HGe-A.
T1 chain: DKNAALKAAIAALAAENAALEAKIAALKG
Kind of assay: two-hybrid library CCmax.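 Note: natural log of median RNA to DNA barcode read ratio; higher means stronger binding.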 Conditions: mean of both orientations.

Assay [2] concerns the target T2, P6-AA-1HGe-M.
T2 chain: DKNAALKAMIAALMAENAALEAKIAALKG
The assay can be described thus: two-hybrid library CCmax.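 Note: natural log of median RNA to DNA barcode read ratio; higher means stronger binding.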 Conditions: mean of both orientations.

In assay [3] the target is T3, P6-AA-1HGe-S.
T3 chain: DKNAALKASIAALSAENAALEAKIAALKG
Kind of assay: two-hybrid library CCmax.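 Note: natural log of median RNA to DNA barcode read ratio; higher means stronger binding.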 Conditions: mean of both orientations.

In assay [4] the target is T4, P6-AA-1HGe-T.
T4 chain: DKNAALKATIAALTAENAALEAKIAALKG
The assay can be described thus: two-hybrid library CCmax.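 Note: natural log of median RNA to DNA barcode read ratio; higher means stronger binding.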 Conditions: mean of both orientations.

Assay [5] concerns the target T5, P6-AA-1HGe-R.
T5 chain: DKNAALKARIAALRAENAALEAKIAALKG
Kind of assay: two-hybrid library CCmax.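 Note: natural log of median RNA to DNA barcode read ratio; higher means stronger binding.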 Conditions: mean of both orientations.

For assay [6], the target named is T6, P6-AA-1HGe-W.
T6 chain: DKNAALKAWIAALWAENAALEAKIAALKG
The assay can be described thus: two-hybrid library CCmax.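 Note: natural log of median RNA to DNA barcode read ratio; higher means stronger binding.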 The note with it: mean of both orientations.

Assay [7] has as its target T7, 4H908-bA.
T7 chain: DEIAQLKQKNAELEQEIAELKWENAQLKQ
The assay can be described thus: two-hybrid library CCNG1.

Assay [8] has as its target T8, 4H4001-bA.
T8 chain: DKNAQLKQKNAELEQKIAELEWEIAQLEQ
Kind of assay: two-hybrid library CCNG1.

Assay [9] deals with T9, 4H72-bA.
T9 chain: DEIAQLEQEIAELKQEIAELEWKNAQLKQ
The assay can be described thus: two-hybrid library CCNG1.

Assay [10] addresses T10, 4H754-bA.
T10 chain: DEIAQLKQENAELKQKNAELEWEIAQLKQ
Kind of assay: two-hybrid library CCNG1.

The target of assay [11] is T11, 4H797-bA.
T11 chain: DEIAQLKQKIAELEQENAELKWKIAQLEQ
The assay can be described thus: two-hybrid library CCNG1.

Assay [12] has as its target T12, 4H3782-bA.
T12 chain: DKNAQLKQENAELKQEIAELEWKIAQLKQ
The assay can be described thus: two-hybrid library CCNG1.

In assay [13] the target is T13, 4H607-bA.
T13 chain: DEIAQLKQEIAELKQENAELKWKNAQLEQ
The assay can be described thus: two-hybrid library CCNG1.

Assay [14] addresses T14, 4H3843-bA.
T14 chain: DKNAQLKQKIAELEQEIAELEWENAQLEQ
Kind of assay: two-hybrid library CCNG1.

Assay [15] addresses T15, 4H338-bA.
T15 chain: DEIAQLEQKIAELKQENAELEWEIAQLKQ
Kind of assay: two-hybrid library CCNG1.

Assay [16] addresses T16, 4H3354-bA.
T16 chain: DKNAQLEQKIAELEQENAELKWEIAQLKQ
Kind of assay: two-hybrid library CCNG1.

For assay [17], the target named is T17, 4H918-bA.
T17 chain: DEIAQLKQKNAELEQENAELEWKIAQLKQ
The assay can be described thus: two-hybrid library CCNG1.

For assay [18], the target named is T18, 4H3427-bA.
T18 chain: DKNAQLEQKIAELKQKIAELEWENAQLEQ
Kind of assay: two-hybrid library CCNG1.

In assay [19] the target is T19, 4H717-bA.
T19 chain: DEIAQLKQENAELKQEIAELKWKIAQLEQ
Kind of assay: two-hybrid library CCNG1.

Assay [20] addresses T20, 4H967-bA.
T20 chain: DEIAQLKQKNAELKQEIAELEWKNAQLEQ
The assay can be described thus: two-hybrid library CCNG1.

Assay [21] has as its target T21, 4H568-bA.
T21 chain: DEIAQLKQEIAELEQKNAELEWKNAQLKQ
The assay can be described thus: two-hybrid library CCNG1.

Assay [22] has as its target T22, 4H331-bA.
T22 chain: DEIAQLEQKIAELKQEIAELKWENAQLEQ
Kind of assay: two-hybrid library CCNG1.

Assay [23] concerns the target T23, 4H370-bA.
T23 chain: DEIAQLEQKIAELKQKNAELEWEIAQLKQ
The assay can be described thus: two-hybrid library CCNG1.

Assay [24] concerns the target T24, 4H462-bA.
T24 chain: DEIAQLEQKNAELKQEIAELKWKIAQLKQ
Kind of assay: two-hybrid library CCNG1. Conditions: mean of both orientations.

Assay [25] addresses T25, 4H953-bA.
T25 chain: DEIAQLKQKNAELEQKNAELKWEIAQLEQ
Kind of assay: two-hybrid library CCNG1.

Assay [26] has as its target T26, 4H3855-bA.
T26 chain: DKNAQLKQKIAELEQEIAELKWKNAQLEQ
The assay can be described thus: two-hybrid library CCNG1.

Assay [27] concerns the target T27, 4H883-bA.
T27 chain: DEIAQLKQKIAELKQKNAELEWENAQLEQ
The assay can be described thus: two-hybrid library CCNG1.

The target of assay [28] is T28, 4H687-bA.
T28 chain: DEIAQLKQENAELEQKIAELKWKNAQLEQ
Kind of assay: two-hybrid library CCNG1.

The target of assay [29] is T29, 4H454-bA.
T29 chain: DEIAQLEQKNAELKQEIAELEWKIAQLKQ
Kind of assay: two-hybrid library CCNG1.

Assay [30] deals with T30, 4H3606-bA.
T30 chain: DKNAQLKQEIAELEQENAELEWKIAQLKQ
Kind of assay: two-hybrid library CCNG1.

As to DENAALEAHIAALHAKNAALKAEIAALEG [P5-AA-1HGe-H], the interaction score is 1.88 in [1]; 1.95 in assay [2]; 1.02 in [3]; 1.88 in [4]; 1.63 in assay [5]; 0.42 in [6].
For DEIAQLEQKIAELKQEIAELKWENAQLEQ [4H331-bA], the interaction score is -1.83 in assay [7]; 0.0797 in [8]; 1.23 in assay [9]; -0.893 in assay [10]; -0.644 in [11]; -0.0209 in assay [12]. The interaction score in assay [13] was -1.42; in assay [14], 0.72; in [15], -0.867; in assay [16], -0.749; in assay [17] it was -0.884; in assay [18] it was 0.677. Also, the interaction score in [19] was -1.06; in assay [20], -1.16; in assay [21] it was -0.11; in assay [22], -0.244; in assay [23], -0.724; in [24] it was -0.426. The interaction score in assay [25] was -1.28; in assay [26] it was 0.317; in assay [27] it was -0.483; in assay [28], -0.899; in assay [29] it was 0.885; in [30], -0.929.
